Test results from patent US20250145697A1 (WASHINGTON UNIVERSITY, published 2025).

Key:
[1] = target: T1, ApoE4 amino acids 1-164, expressed on yeast (human, UniProt P02649 19-182); test: yeast display of myc-tagged ApoE4 fragment, antibody staining
T1 construct: with myc tag, on yeast cells; range counts on the mature protein; also called up to helix 4; not shown: myc tag and yeast surface-display partner
T1 chain: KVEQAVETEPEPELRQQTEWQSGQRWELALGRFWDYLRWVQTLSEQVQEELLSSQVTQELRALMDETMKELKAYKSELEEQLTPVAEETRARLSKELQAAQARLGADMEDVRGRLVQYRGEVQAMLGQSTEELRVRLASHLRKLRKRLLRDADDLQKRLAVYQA
Protocol: (§1) Epitope binding of various anti-ApoE antibodies was evaluated multiple ways. Different sequences of human ApoE were expressed on the surface of yeast by yeast display using different plasmids. Different anti-ApoE antibodies were then assessed to determine binding to the different ApoE sequences by immunofluorescence of the yeast cell surface (Table 4). Because none of the anti-ApoE antibodies tested here recognize murine ApoE, the epitope was further narrowed down by comparison of the murine and human ApoE sequences as shown in Tables 4 and 5. DNA constructs containing different regions of ApoE4 with myc tag were transformed into yeast cells. Yeast cells were incubated with HJ15x to detect binding or anti-myc antibody to detect expression.

[2] = target: T2, ApoE4 amino acids 1-210, expressed on yeast (human, UniProt P02649 19-228); test: as above
T2 construct: with myc tag, on yeast cells; range counts on the mature protein; also called N terminal domain; not shown: myc tag and yeast surface-display partner
T2 chain: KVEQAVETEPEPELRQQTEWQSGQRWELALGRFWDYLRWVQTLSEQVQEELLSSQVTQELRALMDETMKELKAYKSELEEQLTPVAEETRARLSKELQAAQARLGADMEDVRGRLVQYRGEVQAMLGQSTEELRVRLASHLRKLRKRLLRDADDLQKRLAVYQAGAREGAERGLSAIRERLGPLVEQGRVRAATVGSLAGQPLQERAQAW
Protocol: as §1

[3] = target: T3, ApoE4 amino acids 24-164, expressed on yeast (human, UniProt P02649 42-182); test: as above
T3 construct: with myc tag, on yeast cells; range counts on the mature protein; also called helix1 + 2 + 3 + 4
T3 chain: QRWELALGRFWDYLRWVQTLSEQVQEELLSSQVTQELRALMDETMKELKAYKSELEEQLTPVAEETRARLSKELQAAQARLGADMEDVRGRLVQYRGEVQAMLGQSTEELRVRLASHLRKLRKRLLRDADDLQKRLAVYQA
Protocol: as §1

[4] = target: T4, ApoE4 amino acids 54-164, expressed on yeast (human, UniProt P02649 72-182); test: as above
T4 construct: with myc tag, on yeast cells; expression in yeast printed as Low; range counts on the mature protein; also called helix2 + 3 + 4
T4 chain: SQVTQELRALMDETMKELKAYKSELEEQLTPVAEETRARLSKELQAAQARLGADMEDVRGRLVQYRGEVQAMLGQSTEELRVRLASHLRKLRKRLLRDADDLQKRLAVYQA
Protocol: as §1

[5] = target: T5, recombinant alipidated human ApoE4 (human, UniProt P02649 19-317); test: direct ELISA on coated recombinant alipidated ApoE (0.5 ug/ml)
T5 construct: mature; full length recombinant protein made in E. coli or bought; biotinylated for SPR; position 112 is counted on the mature protein, not on the precursor entry; also called recApoE; non-lipidated ApoE4
Procedure, shortened: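 Plates coated overnight with full-length recombinant alipidated ApoE (0.5 μg/ml), from E. coli or a commercial source, were washed, blocked and incubated with anti-ApoE antibody. Binding was detected with goat anti-mouse IgG-HRP to generate dose-response curves.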
Target sequence in this assay (P02649 19-317 C130R): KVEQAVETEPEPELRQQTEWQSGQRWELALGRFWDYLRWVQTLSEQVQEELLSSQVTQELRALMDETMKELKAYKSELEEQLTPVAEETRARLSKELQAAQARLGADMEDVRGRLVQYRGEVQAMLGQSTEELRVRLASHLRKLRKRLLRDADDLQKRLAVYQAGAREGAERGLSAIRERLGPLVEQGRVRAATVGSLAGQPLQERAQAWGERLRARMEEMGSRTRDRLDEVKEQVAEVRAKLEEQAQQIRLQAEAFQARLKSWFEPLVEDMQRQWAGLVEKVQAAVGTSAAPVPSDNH

[6] = target: T5, recombinant alipidated human ApoE4; test: ELISA, plate coated with 0.5 ug/ml recombinant apoE4, HRP goat anti-mouse detection, OD450
Protocol: ELISA plates were coated with 0.5 μg/ml of recombinant apoE2 (square), apoE3 (open circle), or apoE4 (closed circle). Then different concentrations of (A) HJ151, (B) HJ153, (C) HJ154, or (D) HJ156 were loaded on the plates. Horse-radish peroxidase labeled goat anti-mouse secondary antibodies were used to detect binding. […] HJ151 is specific for ApoE4 and HJ156 binds only ApoE3 and ApoE4. FIG. 5E-H are graphs depicting surface plasmon resonance profiles for various antibodies. Anti-ApoE antibodies were serially diluted 3-fold (starting at 100 nM for HJ153 (E), and 1000 nM for HJ151 (F), and […] (G)) for detection of binding to biotinylated-recombinant apoE4 captured on a streptavidin chip. Samples were injected at a flow rate of 30 μl/minute. (H) Apparent KD values of HJ151, HJ153 and HJ156 were calculated based on the SPR experiment.
ELISA plates were coated with 0.5 μg/ml of recombinant apoE2, apoE3, or apoE4. Then different concentrations of HJ151 (FIG. 5A), HJ153 (FIG. 5B), HJ154 (FIG. 5C), or HJ156 (FIG. 5D) were loaded on the plates. Horse-radish peroxidase labeled goat anti-mouse secondary antibodies were used to detect binding. […] HJ151 is specific for ApoE4 and HJ156 binds only ApoE3 and ApoE4. Surface plasmon resonance profiles for various antibodies was also performed.

[7] = target: T6, heat-induced aggregates of ApoE4 (human, UniProt P02649 19-317); test: ELISA: pellet of heat-aggregated ApoE4 coated at 0.5 ug/ml, antibody titrated, HRP goat anti-mouse IgG, OD650
T6 construct: mature; aggregated state of the recombinant protein; also called ApoE4 incubated at 40 C for 24 hr; heat-treated ApoE4
Protocol: The aggregated ApoE was induced by incubating ApoE at 1 mg/ml concentration at 40° C. for 24 hours. The aggregates then were recovered in the pellet fraction following ultracentrifugation at 186,000 g for 1 hour. For ELISA, the untreated ApoE or heat-induced aggregates of ApoE were coated directly to ELISA plates at 0.5 μg/ml overnight at 4° C. After three washes with PBS, the wells were blocked with 1% BSA-PBS for 1 hour at room temperature with shaking at 500 rpm. The blocked wells were washed once with PBS and subsequently loaded with antibodies at serial concentrations (starting at 100 nM with 5-fold dilutions thereafter). Bound antibodies were detected with HRP-labeled goat anti-mouse IgG (Jackson Immunoresearch) and visualized with TMB substrate at OD₆₅₀ (reaction stopped with BioFX stop solution).

Row | Binder | binding result [1] | binding result [2] | binding result [3] | binding result [4] | EC50 [5] | EC50 (read off the curve) [6] | EC50 (read off the curve) [7]
1 | HJ151 (antibody, V domains shown, murine monoclonal antibody from hybridoma; also called HJ151B (biotinylated)) VH: QVQLQQSGAELVRPGASVTLSCKASGYTFTDYEMHWVKQTPVHGLEWIGVIDPEKGGTAYNQKFKGKAILTADKSSSTAYMDLRSLTSEDSAVYYCLKDSWGQGTTLTVSS VL: DVLMTQTPLSLPVSLGDQASISCRSSQTIVHSDGNTYLEWYLQKPGQSPKLLIYKVSNRFSGVPDRFSGSGSGTYFTLKISRVEAEDLGVYYCFQGSHVPCTFGGGTKLEIKR | binds | binds | binds | binds | 0.44 nM | ~0.5 nM | ~0.3 nM
2 | HJ156 (antibody, V domains shown, murine monoclonal antibody from hybridoma; also called HJ156B (biotinylated)) VH: QVQLQQSGPELVKPGASVKISCKASGYIFTDYYINWVKRRPGQGLEWIGWIFPGSGVSYYNEQFKGKATLTVDKPSNTAYIFLSRLTSEDSAVYFCARYYSSSPFAYWGQGTLVTVSA VL: DVLMTQTPLSLPVSLGDQASISCRSSQNIIHSNGNTYLEWFLQRPGQSPELLIYKVSNRFSGVPDRFSGSGSGTDFTLKISRVEAEDLGVYYCFQGSHVPYTFGGGTKLEIKR | binds | binds | binds | binds | 0.62 nM | ~1 nM | ~0.07 nM
3 | HJ154 (antibody, V domains shown, murine monoclonal antibody from hybridoma; also called HJ154B (biotinylated)) VH: QVQLQQPGTEFVMSGASVMLSCKASGYIFTNYWLHWVKQRPGHGLEWIGEIDPSDSYSICNDNFKGKSTLTVDKSSSTAYMQLSSLTSEDSAVYYCAGSLGRVGLAYWGQGTLVTVST VL: QIVLTQSPAIMSASPGEKVTMSCSASSSVSNMYWYQQKPGSSPKSWIYRTSNLASGVPARFSGSGSGTSYSLTISNMEAEDAATYYCQHYQNYPLTFGAGTKLELKR | binds | binds | binds | binds | 0.26 nM | ~0.3 nM | ~0.3 nM
